Data published in publication PMC3814370, “Functional assignment of KEOPS/EKC complex subunits in the biosynthesis of the universal t^6A tRNA modification” (Nucleic Acids Research, 2013).
pKd: −log10 of the molar value. Each block holds one substance with its values, some of them ahead of it.

Tests used:
[1] = biological target: Pcc1–Kae1 binary complex from Pyrococcus abyssi (Pyrococcus abyssi) (UniProt Q9V1Z9)
[2] = tested on: Kae1-Bud32 (Pyrococcus abyssi); test: EMSA; conditions: apparent Kd; retarded bands from 50 nM; EMSA: 10 nM 32P-tRNA, 20 µl binding buffer BB (composition not in material), 15 min at 4 C (Figure 7 legend: room temperature), 10% native gel in 1X TGE at 4 C

Sequence of Pcc1–Kae1 binary complex from Pyrococcus abyssi (Pyrococcus abyssi) (Q9V1Z9 whole entry, chain 1 of 2): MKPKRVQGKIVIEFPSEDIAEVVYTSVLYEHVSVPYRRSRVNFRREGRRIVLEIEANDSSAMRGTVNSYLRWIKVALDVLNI
Sequence of Pcc1–Kae1 binary complex from Pyrococcus abyssi (Pyrococcus abyssi) (Q9UXT7 whole entry, chain 2 of 2, further chain): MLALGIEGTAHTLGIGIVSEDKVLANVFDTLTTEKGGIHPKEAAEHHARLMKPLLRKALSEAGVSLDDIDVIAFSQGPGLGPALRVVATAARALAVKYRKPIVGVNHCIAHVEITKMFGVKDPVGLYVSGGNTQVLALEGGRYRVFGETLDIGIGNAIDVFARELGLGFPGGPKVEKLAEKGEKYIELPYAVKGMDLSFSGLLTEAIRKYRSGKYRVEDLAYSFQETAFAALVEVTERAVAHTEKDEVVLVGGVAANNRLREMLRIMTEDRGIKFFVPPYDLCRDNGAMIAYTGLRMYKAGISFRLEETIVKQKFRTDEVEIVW

t^6A synthesis (14C-L-threonine incorporated into tRNA) by a mix of the two binary complexes, relative to PaKEOPS [1]: 30%
Substance: Kae1–Bud32 binary complex from Pyrococcus abyssi (from UniProt Q9UXT7 1-324; Q9UYB9 1-220)

t^6A synthesis (14C-L-threonine incorporated into tRNA) after adding Pcc1–Kae1 to the ternary complex, relative to PaKEOPS [1]: 36%
Substance: Kae1–Bud32–Cgi121 ternary complex from Pyrococcus abyssi (from UniProt Q9UXT7 1-324; Q9UYB9 1-220; Q9UZ62 1-171)

Substance: substrate tRNA (probably Ec_tRNALys)
pKd [2]: 5.70
